Our source for the Kd values is US5654398, “Compositions and methods for inhibiting replication of human immunodeficiency virus-1” (The Regents of the University of California).

The target in this data set is Rev34-50 peptide I (free N- and C-termini) (HIV-1). The data set is described as follows: EMSA; apparent nonspecific Kd with tRNA, 4 C. The note with it: protein: synthetic; tags: synthetic peptide, unmodified termini; label: 32P; stem-loop with internal bulge. (A gel shift assay detects complexes by their altered migration in electrophoresis.)

For GGCUGGUAUCGGCGCAGCGUCAAUGACGCUGACGGUAGAGGCCAGCC (ssRNA, [10,38]) [RRE IIB C46-G74 mutant], the Kd turned out to be 3000 nM.
